Changes are numbered by the printed parent chain.
Legend:
[1] = molecular target: T1, recombinant human EGFR extracellular domain with 6xHis (human, UniProt P00533 25-645); experiment: SPR competition, competitor 1284
T1 construct: In-house produced; also called 6xHis EGFR ECD; soluble human EGFR ECD; not shown: 6xHis tag
Procedure: (§1) SPR analysis was performed on a Biacore 3000 machine containing four flow cells. A CM5 Biacore chip was conjugated with 10,000 Resonance units (Ru) polyclonal anti-His antibody to flow cells 1-4 according to the manufacturer's instructions. […] Immediately after antigen injection the maximal binding of the Anti-EGFR mAb without competition was established in each flow cell during a reference run. Briefly 5 μl antibody at a concentration of 40 μg/ml was injected over all flow cells with captured EGFR followed by stripping of the antibody/antigen complex with a low pH acid wash (10 sec. contact time with 10 mM Glycine-HCl, pH2). After the determination of Anti-EGFR antibody maximal binding to each flow cell, a competition run was performed during the same Biacore cycle. Flow cells were first saturated with EGFR ECD antigen followed by injection of different reference antibodies or Anti-EGFR antibodies into separate flow cells using the same antigen saturating conditions as outlined above. This step was immediately followed by a second injection of Anti-EGFR antibody over the flow cell saturated with EGFR antigen and competition antibody to minimize the dissociation of either antigen or blocking antibody. Then the antibody/antigen complexes were stripped off with a low pH acid wash (10 sec. contact time with 10 mM Glycine-HCl, pH 2) and the whole cycle beginning with the reference run was repeated with a new Anti-EGFR antibody. The degree of inhibition of tested Anti-EGFR antibodies were determined by comparing the Ru max value of the individual Anti-EGFR antibody before and after competition by introduction of report points recorded two seconds before and after injection of each sample.

[2] = molecular target: T1, recombinant human EGFR extracellular …; experiment: SPR competition, competitor 1030corr
Procedure: as §1

[3] = molecular target: T1, recombinant human EGFR extracellular …; experiment: SPR competition, competitor 1042
Procedure: as §1

[4] = molecular target: T1, recombinant human EGFR extracellular …; experiment: SPR competition, competitor 1320
Procedure: as §1

[5] = molecular target: T1, recombinant human EGFR extracellular …; experiment: SPR competition, competitor 1208
Procedure: as §1

[6] = molecular target: T1, recombinant human EGFR extracellular …; experiment: SPR competition, competitor 1308
Procedure: as §1

[7] = molecular target: T1, recombinant human EGFR extracellular …; experiment: SPR competition, competitor 992 corr
Procedure: as §1

[8] = molecular target: T1, recombinant human EGFR extracellular …; experiment: SPR competition, competitor 1344
Procedure: as §1

[9] = molecular target: T1, recombinant human EGFR extracellular …; experiment: SPR (BIAcore 2000); IgG captured on anti-human Fc, soluble monovalent EGFR ECD injected
Procedure: Kinetic analysis of the full length IgG antibodies of the invention was performed on a BIAcore 2000, employing an assay as described in (Canziani, Klakamp, et al. 2004, Anal. Biochem, 325:301-307) allowing measurement of monovalent affinities of whole IgG molecules against soluble antigen. […] The chip surface was regenerated in between cycles by stripping the captured antibody/antigen complexes with a 10 second injection of 100 mM H₃PO₄. […] The association rate constant (ka) and dissociation constant (kd) were evaluated globally from the generated sensograms with the BIA evaluation software 4.1 provided by the manufacturer.

[10] = molecular target: T1, recombinant human EGFR extracellular …; experiment: SPR competition, competitor 1260
Procedure: as §1

[11] = molecular target: T1, recombinant human EGFR extracellular …; experiment: SPR competition, competitor 1257
Procedure: as §1

[12] = molecular target: T1, recombinant human EGFR extracellular …; experiment: SPR competition, competitor Vectibix
Procedure: as §1

[13] = molecular target: T1, recombinant human EGFR extracellular …; experiment: SPR competition, competitor 1261
Procedure: as §1

[14] = molecular target: T1, recombinant human EGFR extracellular …; experiment: SPR competition, competitor 1449
Procedure: as §1

[15] = molecular target: T1, recombinant human EGFR extracellular …; experiment: SPR competition, competitor 1277
Procedure: as §1

[16] = molecular target: T1, recombinant human EGFR extracellular …; experiment: SPR competition, competitor 1347
Procedure: as §1

[17] = molecular target: T2, Cynomolgus EGFR extracellular domain (Cynomolgus monkey (Macaca fascicularis), UniProt P55245 25-645 (rhesus entry)); experiment: ELISA on cynomolgus EGFR ECD (Example 10)
T2 construct: Cloned without signal peptide; also called Cynomolgus rEGFR ECD; Cynomolgus EGFR ECD
Procedure: To verify that tested Anti-EGFR antibodies bound equally well to both Human and Cynomolgus EGFR ECD and accordingly warranting toxicology studies in Cynomolgus monkeys, serial four fold dilutions of antibodies beginning from 1 μg/ml were tested by ELISA for binding to recombinant Human and Cynomolgus EGFR ECD proteins. […] ELISA wells were coated with 50 μl/well of full length EGFR at a concentration of 1 μg/ml in PBS overnight at 4° C. The next morning wells were washed twice with PBS-T and blocked for one hour with 100 μl PBS-T-1% BSA at room temperature, followed by wash twice in PBS-T. Next 50 μl of serially diluted Anti-EGFR antibodies and control antibodies were added to wells and incubated for one hour at room temperature. After antibody incubation wells were washed five times with PBS-T, followed by incubation with 50 μl/well Streptavidin-HRP secondary reagent diluted 1:3000 in blocking buffer and incubation at room temperature for 30 min. Finally wells were washed five times with PBS-T and plates were developed by adding 50 μL/well TMB substrate and incubated at room temperature. After incubation the reaction was stopped by addition of 1 M H₂SO₄; 100 μl/well and plates were read at OD 450 nm.

[18] = molecular target: T1, recombinant human EGFR extracellular …; experiment: SPR competition, competitor 1024
Procedure: as §1

[19] = molecular target: T1, recombinant human EGFR extracellular …; experiment: SPR competition, competitor 1254
Procedure: as §1

[20] = molecular target: T1, recombinant human EGFR extracellular …; experiment: SPR competition, competitor Erbitux
Procedure: as §1

[21] = molecular target: T3, wild type full length EGFR purified from A431 cells (human, UniProt P00533 25-1210); experiment: competition ELISA, competitor Ab-10; set-up: concentration or dose not given beside the values
T3 construct: mature; Bought; coated on ELISA wells; also called full length EGFR receptor antigen; Sigma E3641
Procedure: (§2) The ELISA was adapted from the descriptions published in Ditzel et al, 1995, The Journal of Immunology, Vol 154, Issue 2 893-906.
(§3) An epitope blocking ELISA was performed by diluting full length EGFR receptor antigen to 0.5 μg/ml in PBS; and coating 50 μl/ELISA well overnight at 4° C. […] Finally wells were washed four times with PBS-T and plates were developed by adding 50 μl/well TMB and read at 620 nm every 5-15-30 min. The degree of inhibition was calculated from the formula: % inhibition=(1−(OD competition/OD no competition (PBS)))×100.

[22] = molecular target: T1, recombinant human EGFR extracellular …; experiment: SPR competition, competitor Ab-3
Procedure: as §1

[23] = molecular target: T1, recombinant human EGFR extracellular …; experiment: SPR competition, competitor ICR10
Procedure: as §1

[24] = molecular target: T3, wild type full length EGFR purified …; experiment: competition ELISA, competitor Ab-3; set-up: concentration or dose not given beside the values
Procedure: as §2, §3

[25] = molecular target: T1, recombinant human EGFR extracellular …; experiment: SPR competition, competitor Ab-10
Procedure: as §1

[26] = molecular target: T1, recombinant human EGFR extracellular …; experiment: SPR competition, competitor Ab-5
Procedure: as §1

[27] = molecular target: T3, wild type full length EGFR purified …; experiment: competition ELISA, competitor Ab-5; set-up: concentration or dose not given beside the values
Procedure: as §2, §3

[28] = molecular target: T3, wild type full length EGFR purified …; experiment: competition ELISA, competitor Ab-2; set-up: concentration or dose not given beside the values
Procedure: as §2, §3

[29] = molecular target: T1, recombinant human EGFR extracellular …; experiment: SPR competition, competitor Vectibix; remark: listed apart in the source
Procedure: as §1

[30] = molecular target: T1, recombinant human EGFR extracellular …; experiment: SPR competition, competitor Ab-11
Procedure: as §1

[31] = molecular target: T3, wild type full length EGFR purified …; experiment: competition ELISA, competitor Ab-1; set-up: concentration or dose not given beside the values
Procedure: as §2, §3

[32] = molecular target: T3, wild type full length EGFR purified …; experiment: competition ELISA, competitor Ab-11; set-up: concentration or dose not given beside the values
Procedure: as §2, §3

[33] = molecular target: T3, wild type full length EGFR purified …; experiment: competition ELISA, competitor ICR10; set-up: concentration or dose not given beside the values
Procedure: as §2, §3

[34] = molecular target: T1, recombinant human EGFR extracellular …; experiment: SPR competition, competitor Erbitux; remark: listed apart in the source
Procedure: as §1

[35] = molecular target: T1, recombinant human EGFR extracellular …; experiment: SPR competition, competitor Ab-1
Procedure: as §1

B1: antibody 1254 (antibody, human IgG1, kappa, V domains shown)
VH: EVQLVESGGGLVKPGGSLKLSCAASGFAYSTYDMSWVRQTPEKRLEWVAYISSGGDAAYYPDTVKGRFTISRDNAKNTLYLQMSSLKSEDTAMYYCARSRYGNYGDAMDYWGQGTSVTVSS
VL: DVVMTQTPLSLPVSLGDQASISCRSSQSLVHSNGNTYLHWYLQKPGQSPKLLLYKVSNRFSGVPDRFSGSGSGTDFTLKISRVESEDLGVYFCSQNTHVYTFGGGTKLEIKR
notes: Chimeric IgG1 kappa; also called mAb 1254
[1]
  % inhibition: 6%
[2]
  % inhibition: 82%
[3]
  % inhibition: 29%
[4]
  % inhibition: 6%
[5]
  % inhibition: 108%
[6]
  % inhibition: -2%
[7]
  % inhibition: 106%
[8]
  % inhibition: 4%
[9]
  Kd: 12.7 nM
  koff: 0.001 s⁻¹
  kon: 81000 M⁻¹ s⁻¹
  t1/2: 11.3 min
[10]
  % inhibition: 0%
[11]
  % inhibition: 7%
[12]
  % inhibition: 96%
[13]
  % inhibition: 6%
[14]
  % inhibition: 5%
[15]
  % inhibition: 99%
[16]
  % inhibition: 3%
[17]
  binding result: binds
[18]
  % inhibition: 6%
[19]
  % inhibition: 102%
[20]
  % inhibition: 44%

B2: antibody 1277 (antibody, human IgG1, kappa, V domains shown)
VH: EVQLVESGGGLVKPGESLKLSCAASGFAFSYSDMSWVRQTPEKRLEWVAYMSSAGDVTFYSDTVKGRFTISRDNAKNTLYLQVSSLKSEDTAIYYCVRHRDVAMDYWGQGTSVTVSS
VL: B1 VL with L53I, S85A, N96S, Y100P
notes: Chimeric IgG1 kappa; also called clone 1277
[17]
  binding result: binds

B3: antibody 1042 (antibody, human IgG1, kappa, V domains shown)
VH: QVQLQQPGAELVKPGASVKLSCKASGYTFTSHWMHWVQQRPGQGLEWIGEIHPSNGRTNYNEKFKNKATLTVDKSPSTAYMQLSSLTSEDSAVYYCARYYGYDDAMDYWGQGTSVTVSS
VL: DIVMTQAAFSNPVTLGTSASISCRSSKSLLHSNGITYLYWYLQKPGQSPQLLIYQMSNLASGVPDRFSSSGSRTDFTLRISRVEAEDVGVYYCAQNLELPYTFGGGTKLEIKR
notes: Chimeric IgG1 kappa; RA- left out of the VH entry
[21]
  % inhibition: 15%
[22]
  % inhibition: 0%
[23]
  % inhibition: -6%
[3]
  % inhibition: 83%
[24]
  % inhibition: -29%
[7]
  % inhibition: 25%
[25]
  % inhibition: -4%
[26]
  % inhibition: 10%
[27]
  % inhibition: -7%
[28]
  % inhibition: 81%
[12]
  % inhibition: 103%
[29]
  % inhibition: 110%
[30]
  % inhibition: -8%
[31]
  % inhibition: 24%
[14]
  % inhibition: 93%
[32]
  % inhibition: 7%
[33]
  % inhibition: -7%
[17]
  binding result: binds
[34]
  % inhibition: 107%
[35]
  % inhibition: 14%
[20]
  % inhibition: 107%
